Sequences and labels used below:
B1: X0106-F05: germlined, optimized version of M0307-F04, IgG1 (antibody, V domains shown)
VH: EVQLLESGGGLVQPGGSLRLSCAASGFTFSLYDMWWVRQAPGKGLEWVSVIYSSGGYTGYADSVKGRFTISRDNSKNTLYLQMNSLRAEDTAVYYCAKDRAYGDYVGWNGFDYWGQGTLVTVSS
VL: EIVLTQSPATLSLSPGERATLSCRASQSISSFLAWYQQKPGQAPRLLIYDASYRATGIPARFSGSGSGTDFTLTISSLEPEDFAVYYCQQRGNWPITFGQGTRLEIK
B2: X0106-B02: germlined, optimized version of M0276-F11, IgG1 (antibody, V domains shown)
VH: B1 VH with L31W, Y57P, G59F
VL: B1 VL
B3: X0106-A01: germlined, optimized version of M0256-D11, IgG1 (antibody, V domains shown)
VH: B1 VH with L31H, Y57P, G59F
VL: B1 VL
B4: X0106-C03: germlined, optimized version of M0274-G08, IgG1 (antibody, V domains shown)
VH: B1 VH with L31V, S53P, Y57A, G59Y
VL: B1 VL
B5: X0106-E04: germlined, optimized version of M0275-D03, IgG1 (antibody, V domains shown)
VH: EVQLLESGGGLVQPGGSLRLSCAASGFTFSQYDMWWVRQAPGKGLEWVSVIYPSGTTFYADSVKGRFTISRDNSKNTLYLQMNSLRAEDTAVYYCAKDRAYGDYVGWNGFDYWGQGTLVTVSS
VL: B1 VL
B6: M0299-A12: affinity matured variant of M237-D02, sFab (antibody, V domains shown)
VH: B1 VH with L31H, D33P, V50Y, Y52S, Y57G, G59F
VL: QDIQMTQSPATLSLSPGERATLSCRASQSISSFLAWYQQKPGQAPRLLIYDASYRATGIPARFSGSGSGTDFTLTISSLEPEDYAVYYCQQRGNWPITFGQGTRLEIK
B7: M0275-E12: affinity matured variant of M237-D02, sFab (antibody, V domains shown)
VH: B1 VH with L31H, Y57F
VL: B6 VL
B8: M0301-D12: affinity matured variant of M237-D02, sFab (antibody, V domains shown)
VH: B1 VH with L31M, G59S
VL: B6 VL
B9: M0307-F04: affinity matured variant of M237-D02, sFab (antibody, V domains shown)
VH: B1 VH
VL: B6 VL
B10: M0274-G08: affinity matured variant of M237-D02, sFab (antibody, V domains shown)
VH: B1 VH with L31V, S53P, Y57A, G59Y
VL: B6 VL
B11: M0273-A11: affinity matured variant of M237-D02, sFab (antibody, V domains shown)
VH: B1 VH with L31R, Y52S, S53P, Y57A, G59F
VL: B6 VL
B12: M0301-A09: affinity matured variant of M237-D02, sFab (antibody, V domains shown)
VH: B1 VH with L31Y, S53P, G59A
VL: B6 VL
B13: M0272-H08: affinity matured variant of M237-D02, sFab (antibody, V domains shown)
VH: B1 VH with L31A, S53P, Y57T, G59F
VL: B6 VL
B14: M0275-D03: affinity matured variant of M237-D02, sFab (antibody, V domains shown)
VH: B5 VH
VL: B6 VL
B15: M0273-C10: affinity matured variant of M237-D02, sFab (antibody, V domains shown)
VH: B1 VH with L31F, D33P, V50Y, S53P, Y57A, G59F
VL: B6 VL
B16: M0256-D11: affinity matured variant of M237-D02, sFab (antibody, V domains shown)
VH: B1 VH with L31H, Y57P, G59F
VL: B6 VL
B17: M0273-G07: affinity matured variant of M237-D02, sFab (antibody, V domains shown)
VH: B1 VH with L31H, S53P, Y57P, G59Y
VL: B6 VL
B18: M0273-B10: affinity matured variant of M237-D02, sFab (antibody, V domains shown)
VH: B1 VH with L31K, D33A, W35I, V50W, Y52P, S53P, G59S
VL: B6 VL
B19: M0276-F11: affinity matured variant of M237-D02, sFab (antibody, V domains shown)
VH: B1 VH with L31W, Y57P, G59F
VL: B6 VL

Among the data in US20110135573A1, “METALLOPROTEINASE 9 AND METALLOPROTEINASE 2 BINDING PROTEINS” (DYAX CORP., priority 2009, published 2011) are Ki values, retold here.

Where a chain is given by its changes, count along the chain named.

The target in the first experiment is T1, mouse MMP-2 (Mus musculus, UniProt P33434).
T1 construct: purchased R&D Systems 924-MP-010
T1 sequence (P33434 110-662): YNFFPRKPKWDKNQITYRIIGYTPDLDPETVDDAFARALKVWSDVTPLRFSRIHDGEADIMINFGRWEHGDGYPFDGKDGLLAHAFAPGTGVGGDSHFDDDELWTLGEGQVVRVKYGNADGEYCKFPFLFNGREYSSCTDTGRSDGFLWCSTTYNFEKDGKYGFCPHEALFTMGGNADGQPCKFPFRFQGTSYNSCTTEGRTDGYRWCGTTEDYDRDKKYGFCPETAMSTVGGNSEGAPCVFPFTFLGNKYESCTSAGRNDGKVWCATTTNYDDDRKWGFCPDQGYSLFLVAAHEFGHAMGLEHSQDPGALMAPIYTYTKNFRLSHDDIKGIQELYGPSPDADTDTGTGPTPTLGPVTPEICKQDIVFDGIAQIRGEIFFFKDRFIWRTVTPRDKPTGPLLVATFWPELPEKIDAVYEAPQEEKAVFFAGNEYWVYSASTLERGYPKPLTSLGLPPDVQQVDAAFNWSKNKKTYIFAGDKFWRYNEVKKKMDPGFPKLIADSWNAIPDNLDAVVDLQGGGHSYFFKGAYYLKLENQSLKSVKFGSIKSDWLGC
Description: Enzyme inhibition assay (single point inhibition, IC50/Ki,app), substrate M-2350. It counts as biochemical. The conditions noted are these: IgG; Table 12. The protocol: 343 unique sFabs from the anti-MMP-9/-2 M237-D02 affinity maturation campaign were discovered by phage display, produced in small scale (6 mL cultures in deep 24-well plates) and screened to select inhibitors with sub-nanomolar potency against the human enzymes and at least single-digit nanomolar potency toward the mouse orthologues. […] Isolates which appeared potent against both human and mouse MMP-2 were then subjected to IC50 analysis against hMMP-9. Sub-nanomolar inhibitors of hMMP-9 were further tested by IC50 analysis against mMMP-9 and h/m MMP-2, if sufficient small-scale sFab material was available. Thirteen potential h/m MMP-9/-2 sFab inhibitors were then produced in medium scale (250 mL cultures in flasks) and retested for h/m MMP-9 and h/m MMP-2 inhibition. Five potential lead candidates were reformatted as IgGs and retested in enzyme inhibition assays.
Human MMP-9 (Biomol #SE-244), mouse MMP-9 (R&D Systems #909-MM-010), human MMP-2 (Biomol #SE-237) and mouse MMP-2 (R&D Systems #924-MP-010) were tested at final concentrations of 1 nM, 0.25-0.4 nM, 2.5 nM and 0.2 nM, respectively. Target enzymes were incubated with inhibitor for two hours at 30° C. in reaction buffer (50 mM Tris-HCl pH 7.5, 150 mM NaCl, 5 mM CaCl2, 0.05% Brij-35) in a total volume of 90 μL using a white 96 well plate (Costar). Reactions contained 5 μL of small-scale sFab stock solution (average concentration of 500 nM) for single point inhibition analysis or a concentration series of sFab/IgG for IC50 Ki,app determinations. Commercially available anti-MMP-9 antibodies (Millipore mAb 13415 and R&D Systems polyclonal IgG #AB911) were tested by IC50 analyses using 100 nM and 500 nM as the highest inhibitor concentrations, respectively. An anti-MMP-2 antibody (R&D Systems polyclonal IgG #AF902) was similarly tested with 200 nM as the highest inhibitor concentration. Reactions were initiated by the addition of 10 μL of a 10× concentrated stock of substrate, Mca-Lys-Pro-Leu-Gly-Leu-Dap(Dnp)-Ala-Arg-NH2, (Bachem M-2350), at final concentration of 10 μM and monitored at 30° C. in a Molecular Devices' Gemini fluorescence plate reader. The excitation and emission wavelengths were set at 328 nm and 393 nm, respectively. Kinetic data were acquired by the increase in fluorescence, and initial rates for each condition were plotted against the total inhibitor concentration. Reactions were performed in duplicates and all data replicates were plotted in a single graph and fit to the following equation^1:
Where A=initial rate observed at each inhibitor concentration; Ao=initial rate observed in the absence of inhibitor; Ainh=initial rate observed for the enzyme inhibitor complex; Inh=concentration of inhibitor; E=total enzyme concentration (treated as a floated parameter); and Ki,app=apparent equilibrium inhibition constant.
Take B1: the Ki was determined as 3 nM.
Still for that read-out and setting: to B2 belongs 4.2 nM.
The same measure, in the same setting: with B3 the figure was 4.7 nM; with B4, 3.2 nM.
For B5, the Ki is 3.9 nM.

Still in this experiment, the particulars now being: medium-scale sFab; Table 10.
In the case of B6, the Ki turned out to be 30 nM.
Still for that read-out and setting: to B7 belongs 15 nM; to B8, 25 nM; to B9, 2.2 nM.
Molecule B10 yielded a Ki of 2.7 nM.
The same measure, in the same setting: with B11 the figure was 32 nM; with B12, 21 nM; with B13, 46 nM.
For B14, the Ki came to 5.4 nM.
In the case of B15, the Ki was found to be 18 nM.
The same measure, in the same setting: with B16 the figure was 4.2 nM; with B17, 22 nM.
Same read-out and setting: with B18 the figure was 59 nM; with B19, 3.7 nM.

Still in this experiment, the particulars now being: small-scale sFab; Table 10.
Take B6: the Ki was determined as 30 nM.
Turning to B7, the Ki turned out to be 15 nM.
B8 had a Ki of 25 nM.
The same measure, in the same setting: with B9 the figure was 2.2 nM.
Still for that read-out and setting: with B10 the figure was 2.7 nM; with B11, 32 nM; with B12, 21 nM.
Same read-out and setting: to B13 belongs 46 nM; to B14, 5.4 nM.
The molecule B15 yielded a Ki of 18 nM.
Still for that read-out and setting: to B16 belongs 4.2 nM; to B17, 22 nM.
With B18, the Ki was 59 nM.
On the same count and under the same terms, with B19 the figure was 3.7 nM.
